Measured values from patent US20070042500A1, “Direct observation of molecular modifications in biological test systems by measuring flourescence lifetime” (Bayer Healthcare AG, priority 2003, published 2007).

Columns and labels:
[1] = target: PDE1b phosphodiesterase (Homo sapiens, UniProt Q01064); assay: PDE reaction with Fl-cAMP followed directly by fluorescence lifetime; assay type: biochemical; settings: without inhibitor
Description: Like the phosphatases and kinases discussed above, phosphodiesterases are a very important class of targets, inter alia in the fields of indication of cardiovascular, metabolic disorders, central nervous system, cancer and respiratory diseases. It is therefore of great interest to have a generic assay format which can measure the conversion of cAMP or cGMP to the respective monophosphate. Usually detection enzyme cascades are used. […] In the experiment, first 1 μM Fl-cAMP and a 1:360 dilution of PDE1b were mixed in the presence of different concentrations of the inhibitor BAY 383045. The kinetics of the enzyme reaction was measured by means of an Ultra FLT prototype (Tecan) at room temperature.

[2] = FLT of potential reactant and product of the TAFI enzyme reaction; assay type: physicochemical; settings: 60 nM; independent of pH (6-9.5) and NaCl concentration (200 mM, 2 M)
Text: The enzyme thrombin activated with fibrinolysis inhibitor (TAFI) is a carboxypeptidase which plays an important part in thromboses. TAFI cleaves the arginine of the peptide sequence IFTR. This reaction may be detected by either mass spectrometric or chromatographic methods. Both methods are not suitable for high throughput substance testing. Alternatively, more or less complex enzyme cascades or chemical reactions may be used which generate a measurable absorption, fluorescence or luminescence signal. No method has been described to date with which the TAFI reaction can be measured directly and which is suitable at the same time for higher throughput. Therefore, the fluorescence lifetimes of the conjugates FJ23 and FJ24 which both carry a fluorescent dye excitable at 630 nm (Evoblue30, Mobitec) and which differ only in the FJ24 conjugate lacking the C-terminal arginine were measured. FJ23 is a potential reactant of the TAFI reaction, while FJ24 would be the corresponding reaction product. The FJ23 and FJ24 conjugates were dissolved at a concentration of 60 nM in various buffers with pH values of 6, 7, 8 and 9.5, and in the presence of 200 mM and 2 M NaCl.

[3] = FLT difference between phosphorylated and non-phosphorylated fluoresceine-kemptide under various pH/NaCl conditions; assay type: physicochemical; settings: 50 nM; pH 6.0 to 9.5 buffers
Description: 0.1 M NaOH, 50 mM borate buffer pH 9.5, 50 mM HEPES buffer pH 8.0, 50 mM HEPES buffer pH 7.0, 50 mM MES buffer pH 6.0, 200 mM NaCl (low)
The quality of an FLT assay improves with increasing differences of the fluorescence lifetimes of reactant and product. An optimally large FLT difference will not be measured immediately in every case. On the other hand, it should be possible to increase the FLT difference initially obtained, for example by selecting and combining various parameters such as, for example, fluorescent dye, spacer molecule between dye and substrate molecule, or polarity, pH, ionic strength of the solvent or other additive. […] In each case 50 nM Fl-P-kemptide and Fl-kemptide were dissolved in the solutions described under Material, and their FLTs were measured by means of a modified Nanoscan instrument (IOM GmbH, Berlin, Germany) which transferred the signals to a transient recorder. 16 decay curves were averaged for each data point. The descending part of the logarithmic-scale curve was evaluated by means of linear regression and the negative slope was mathematically converted into FLT.

[4] = Fluorescence lifetime (FLT) of phosphorylated vs non-phosphorylated fluoresceine-peptide conjugate, Ultra FLT prototype (Tecan); assay type: physicochemical; settings: 10 nM in 50 mM HEPES pH 7.5; mean of 10 measurements of 1 s
Description: It was intended to investigate whether there is a difference between the fluorescence lifetimes (FLTs) of the fluoresceine-peptide conjugates Fl-P1 and Fl-1. For this purpose, in each case 10 nM Fl-P1 and Fl-1 were dissolved in 50 mM HEPES pH 7.5. The fluorescence lifetimes (FLTs) were measured by means of an Ultra FLT prototype (Tecan). In each case, 10 measurements of 1 s each were averaged.

PDE1b phosphodiesterase, sequence (Q01064 whole entry): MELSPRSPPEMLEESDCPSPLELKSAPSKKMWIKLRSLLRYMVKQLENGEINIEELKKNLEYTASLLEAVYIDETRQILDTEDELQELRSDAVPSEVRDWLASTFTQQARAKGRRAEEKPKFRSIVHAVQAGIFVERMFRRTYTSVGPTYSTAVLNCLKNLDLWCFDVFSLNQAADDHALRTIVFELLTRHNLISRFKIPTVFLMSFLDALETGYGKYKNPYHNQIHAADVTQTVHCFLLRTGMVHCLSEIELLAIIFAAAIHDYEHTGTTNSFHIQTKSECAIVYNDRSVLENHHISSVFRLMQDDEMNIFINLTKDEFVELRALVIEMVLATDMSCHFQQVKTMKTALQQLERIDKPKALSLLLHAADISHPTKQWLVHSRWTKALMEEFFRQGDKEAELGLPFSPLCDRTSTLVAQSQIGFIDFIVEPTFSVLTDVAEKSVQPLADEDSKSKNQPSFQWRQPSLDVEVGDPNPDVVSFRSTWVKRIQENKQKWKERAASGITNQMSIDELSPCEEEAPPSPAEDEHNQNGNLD

| Compound | differentiation of phosphorylated and non-phosphorylated form by means of FLT [3] | fluorescence lifetime (FLT) [4] | other results |
| --- | --- | --- | --- |
| Nc1ncnc2c1nc(SCCNC(=S)Nc1ccc(-c3c4ccc(=O)cc-4oc4cc(O)ccc34)c(C(=O)O)c1)n2C1OC2COP(=O)(O)OC2C1O (stereo not shown) [Fl-cAMP, 8-fluo-cAMP] | – | – | fluorescence lifetime at start of PDE1b reaction ([1]; 1 μM Fl-cAMP, start of reaction): approx. 3500 ps; fluorescence lifetime after PDE1b reaction (conversion to Fl-AMP) ([1]; within 100 minutes of reaction): approx. 3350 ps |
| Evoblue30-Ttds(Spacer)-IFTR-COOH [FJ24] | – | – | fluorescence lifetime [2]: 2194±18 ps |
| fluoresceine-C6-LRRASLGCONH2 [Fl-kemptide] | improves when the pH increases from 6.0 to 9.5 | – | – |
| fluoresceine-C6-LRRApSLGCONH2 [Fl-P-kemptide] | improves when the pH increases from 6.0 to 9.5 | – | – |
| fluoresceine-C6-TEGQYQPQP-COOH ({fluorescein-C6}-TEGQYQPQP-OH) [Fl-1] | – | 3600 ps | – |
| fluoresceine-C6-TEGQYpQPQP-COOH [Fl-P1] | – | 3880 ps | – |
